These results are taken from paper PMC10119312, “Structural insights into RNase J that plays an essential role in Mycobacterium tuberculosis RNA metabolism” (Nature Communications, 2023).

The target of data set [1] is T1, Mtb-RNase J D85A (catalytically inactive) (Mycobacterium tuberculosis H37Rv, UniProt P9WGZ9 1-558, D85A).
T1 sequence: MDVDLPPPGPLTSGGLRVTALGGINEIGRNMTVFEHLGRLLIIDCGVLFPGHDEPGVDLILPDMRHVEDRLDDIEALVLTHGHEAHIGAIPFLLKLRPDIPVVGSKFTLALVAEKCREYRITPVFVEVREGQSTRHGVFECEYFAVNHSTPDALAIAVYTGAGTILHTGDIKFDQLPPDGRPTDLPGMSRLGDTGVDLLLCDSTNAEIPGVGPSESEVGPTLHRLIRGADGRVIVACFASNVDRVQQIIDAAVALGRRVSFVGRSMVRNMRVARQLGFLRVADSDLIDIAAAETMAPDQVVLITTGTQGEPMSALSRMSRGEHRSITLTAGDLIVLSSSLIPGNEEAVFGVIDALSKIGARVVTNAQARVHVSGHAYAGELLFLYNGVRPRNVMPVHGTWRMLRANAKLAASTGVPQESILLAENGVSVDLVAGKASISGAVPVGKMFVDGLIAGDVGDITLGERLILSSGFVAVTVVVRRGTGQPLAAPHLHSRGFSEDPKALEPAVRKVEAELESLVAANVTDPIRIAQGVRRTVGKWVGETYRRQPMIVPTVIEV
Nature of the data set: EMSA. Particulars: protein: recombinant; tags: N-terminal 6xHis-SUMO, removed by ULP1; chain copies: 2; label: 5'-FAM; single strand.

Data set [2] concerns the target T1, Mtb-RNase J D85A (catalytically …). The data set is described as follows: X-ray crystal structure. Particulars: protein: recombinant; tags: N-terminal 6xHis-SUMO, removed by ULP1; chain copies: 2; single strand.
The data set “SEC” concerns the molecule itself. The data set is described as follows: SEC.
The data set “crystal structure” concerns the molecule itself. Nature of the data set: crystal structure.
The target in the next data set is T2, Mtb-RNase J 1-375/D85A (Mycobacterium tuberculosis H37Rv, UniProt P9WGZ9 1-375, D85A).
T2 sequence: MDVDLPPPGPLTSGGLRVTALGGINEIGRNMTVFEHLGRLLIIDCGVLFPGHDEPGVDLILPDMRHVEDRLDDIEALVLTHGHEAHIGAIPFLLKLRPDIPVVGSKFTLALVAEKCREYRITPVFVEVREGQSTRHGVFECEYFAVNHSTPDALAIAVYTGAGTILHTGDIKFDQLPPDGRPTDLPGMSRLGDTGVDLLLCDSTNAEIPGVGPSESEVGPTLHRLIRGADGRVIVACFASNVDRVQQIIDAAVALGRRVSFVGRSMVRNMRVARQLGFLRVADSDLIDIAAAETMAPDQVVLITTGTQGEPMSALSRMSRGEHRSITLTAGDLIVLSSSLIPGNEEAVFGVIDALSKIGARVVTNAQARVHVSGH
Nature of the data set: EMSA; 0.5 uM RNA; binding abolished. Particulars: protein: recombinant; tags: N-terminal 6xHis-SUMO, removed by ULP1; single strand.

AAAAAAAAA (ssRNA) [9-nt poly(A) RNA]: the binding result in data set [1] was “binds”. With AAAAAAA (ssRNA) [7-nt poly(A) ssRNA], the binding result in data set [2] is recorded as “binds”.

B1: Mtb-RNase J truncated mutant 1-450 (domain or fragment)
chain: MDVDLPPPGPLTSGGLRVTALGGINEIGRNMTVFEHLGRLLIIDCGVLFPGHDEPGVDLILPDMRHVEDRLDDIEALVLTHGHEDHIGAIPFLLKLRPDIPVVGSKFTLALVAEKCREYRITPVFVEVREGQSTRHGVFECEYFAVNHSTPDALAIAVYTGAGTILHTGDIKFDQLPPDGRPTDLPGMSRLGDTGVDLLLCDSTNAEIPGVGPSESEVGPTLHRLIRGADGRVIVACFASNVDRVQQIIDAAVALGRRVSFVGRSMVRNMRVARQLGFLRVADSDLIDIAAAETMAPDQVVLITTGTQGEPMSALSRMSRGEHRSITLTAGDLIVLSSSLIPGNEEAVFGVIDALSKIGARVVTNAQARVHVSGHAYAGELLFLYNGVRPRNVMPVHGTWRMLRANAKLAASTGVPQESILLAENGVSVDLVAGKASISGAVPVGKMFVD
notes: also called truncated protein (1–450); not shown: 6xHis-sumo, N-terminal, cleaved
Turning to B1, in “SEC”, the “stoichiometry N” value amounted to 2.

B2: Mtb-RNase J truncated mutant 1-470 (domain or fragment)
chain: MDVDLPPPGPLTSGGLRVTALGGINEIGRNMTVFEHLGRLLIIDCGVLFPGHDEPGVDLILPDMRHVEDRLDDIEALVLTHGHEDHIGAIPFLLKLRPDIPVVGSKFTLALVAEKCREYRITPVFVEVREGQSTRHGVFECEYFAVNHSTPDALAIAVYTGAGTILHTGDIKFDQLPPDGRPTDLPGMSRLGDTGVDLLLCDSTNAEIPGVGPSESEVGPTLHRLIRGADGRVIVACFASNVDRVQQIIDAAVALGRRVSFVGRSMVRNMRVARQLGFLRVADSDLIDIAAAETMAPDQVVLITTGTQGEPMSALSRMSRGEHRSITLTAGDLIVLSSSLIPGNEEAVFGVIDALSKIGARVVTNAQARVHVSGHAYAGELLFLYNGVRPRNVMPVHGTWRMLRANAKLAASTGVPQESILLAENGVSVDLVAGKASISGAVPVGKMFVDGLIAGDVGDITLGERLILSS
notes: also called C-terminal truncation (1–470); C-terminal domain-depletion protein (1-470); not shown: 6xHis-sumo, N-terminal, cleaved
For B2, in the data set “SEC”, the “stoichiometry N” value worked out at 2.

B3: Mtb-RNase J (D85A), catalytically inactive mutant (enzyme)
chain: MDVDLPPPGPLTSGGLRVTALGGINEIGRNMTVFEHLGRLLIIDCGVLFPGHDEPGVDLILPDMRHVEDRLDDIEALVLTHGHEAHIGAIPFLLKLRPDIPVVGSKFTLALVAEKCREYRITPVFVEVREGQSTRHGVFECEYFAVNHSTPDALAIAVYTGAGTILHTGDIKFDQLPPDGRPTDLPGMSRLGDTGVDLLLCDSTNAEIPGVGPSESEVGPTLHRLIRGADGRVIVACFASNVDRVQQIIDAAVALGRRVSFVGRSMVRNMRVARQLGFLRVADSDLIDIAAAETMAPDQVVLITTGTQGEPMSALSRMSRGEHRSITLTAGDLIVLSSSLIPGNEEAVFGVIDALSKIGARVVTNAQARVHVSGHAYAGELLFLYNGVRPRNVMPVHGTWRMLRANAKLAASTGVPQESILLAENGVSVDLVAGKASISGAVPVGKMFVDGLIAGDVGDITLGERLILSSGFVAVTVVVRRGTGQPLAAPHLHSRGFSEDPKALEPAVRKVEAELESLVAANVTDPIRIAQGVRRTVGKWVGETYRRQPMIVPTVIEV
notes: also called Mtb-RNase J D85A mutant; Mtb-RNase J/ssRNA (in complex with poly(A) ssRNA); not shown: 6xHis-sumo, N-terminal, cleaved
With B3, the “stoichiometry N” value in the data set “crystal structure” amounted to 2. On to UUCCGUUUAUUCAUACUUCA (ssRNA) [20-nt RNA (called poly(U) in legends; Methods print a mixed sequence)], for which the binding result with Mtb-RNase J 1-375/D85A is “no binding”.
